Target: Tyrosine hydroxylase, wild-type (hTH1) (human) (UniProt P07101)
Test: BLI; biotinylated TH or TH variant immobilised on streptavidin sensors; DNAJC12 or variant 0.01-4 μM in solution; PBS, 0.02% Tween-20, 0.5 mg/mL BSA, 25 °C; responses fitted to a one-site hyperbola

DNAJC12(1-107), sequence (Q9UKB3 1-107): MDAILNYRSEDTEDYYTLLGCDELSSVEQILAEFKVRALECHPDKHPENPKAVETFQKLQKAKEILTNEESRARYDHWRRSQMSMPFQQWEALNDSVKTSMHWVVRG

Kd: 3.99 µM
Substance: DNAJC12(1-107) (from UniProt Q9UKB3-1 1-107) (domain or fragment)
